We go through 17 sequences from the DeepSol protein solubility set.

The nature of the series: soluble on expression in E. coli; label from the status in PepcDB or PDB records.
Take “MSLGLFSKKPPCPICGGKIPLILPSKIEDEYICNTCYNKIDMGADQENHLTMQGLREYLAFYEQNQRLKEQFVISERIDFGLWDTKIIFDHRNKLFCMSKNPDKTVFEGQQLKSFTIKEDSTPLFEGSAAGIRRYASTVTERTMAMAPQIAQSAANRRMARTLDRLDDGKVNNSAPVQYFDIPEPFQAFNVELHFDHPYWTVLQCDMDGPRFDNSHPDVNNYLRSYQQSIEEIEKLVAALRTVAFPGAAEQSVGLGPVGMQAAYTTMAPPTDAIEEIKKYKALMEDGIISQQEFEAKKKQLLGIEGHHHHHH”: the “soluble on expression in E. coli” value is given as “soluble”. Regarding “MGSDKIHHHHHHMASIRELHEQLVKKERSAVEITQETLDHIQELEPKLHSFLHITAQQALEQARAVDAKIAAGEEIGLLAGIPIGVKDNMCTKGIPTTCASRILENFVPPYESTVTQKLLDAGAVVVGKTNLDEFAMGSSTENSAYQVTANPWDLSRVPGGSSGGSAAAVAAEECVVALGSDTGGSIRQPASFCGVVGLKPTYGLVSRYGLVAYASSLDQIGPFGKSVEDTAILLKAIAGYDHQDSTSLKVEIPDYVASLKPDLKARSKLRIGIIKETFGEGLDSVVEQAVTKAIEQLQRLGAEVHVISCPNFRYGVPSYYIIAPSEASANLARYDGVKYGWRAPEGDNLLSMYKRTRATGFGAEVKRRIMIGTYALSAGYYDAYYLKAQKVRTLIKQDFENAFKNVDVLVSPTAPTTAFKAGEKTADPISMYLNDLMTIPVNLAGLPGLSVPCGFDEQGLPIGLQLIGKVLREDQLLQIAYAYEQSTSWHLSQPKIS”, the “soluble on expression in E. coli” value is reported as “not soluble”. In the case of “MSLPGNNSAKGTATGNATALWRNAQLATLNPAMDGIGAVENAVIAVRNGRIAFAGPESDLPDDLSTADETTDCGGRWITPALIDCHTHLVFGGNRAMEFEMRLNGATYEEIAKAGGGIVSSVRDTRALSDEVLVAQALPRLDTLLSEGVSTIEIKSGYGLDIETELKMLRVARRLETLRPVRIVTSYLAAHATPADYKGRNADYITDVVLPGLEKAHAEGLADAVDGFCEGIAFSVKEIDRVFAAAQQRGLPVKLHAEQLSNLGGAELAASYNALSADHLEYLDETGAKALAKAGTVAVLLPGAFYALREKQLPPVQALRDAGAEIALATDCNPGTSPLTSLLLTMNMGATLFRMTVEECLTATTRNAAKALGLLAETGTLEAGKSADFAIWDIERPAELVYRIGFNPLHARIFKGQKVSPEGHHHHHH” it was “soluble”; in that of “MGSDKIHHHHHHMKHIAVIGAGLGGLSAAISLASKGFKVTVIERNEHIGGKMMPITSEGHRFDFGPNTITMPEIFQSVILESGADPDDYFTFEKLTRHTVNHFPDGRSLTFASGREAMRTEVDRFTKGQLAKNDITGYQDEVRELYNIAKQQFFINIDSYFNFSLLRDMTKVHPFKTLHGLHKKYFKDPQLIQALDRYATYIGSSPFQAPATFGLIAHLELNDGVYFTRGGNTAIAEGFARRARELGVTFRLGDEVTQIEVTNQLATEIELNHVDYLSVDFIVLNGDLLTQYPRLISETVRPDFKNPTPAQMEPSISAYVRCIGLGRRIAGLAHHNVFFSSDYEAEFEALFNQHRYAEEPTIYISNSSVTAPEMGEAGDNLFVLVNAPATHKGSAVDFDTYDKIIDQRLQQFGIDITSDVLFEQRITPQDIEQKFSAYHGSLYGLSSNGTRGAFMRPSNRSKNVHNLFFAGGSTHPGGGSPMVTLSGKLASERIVSAVAATL”, “not soluble”. For “MSPKFAADLKKTIYDNMTFDPKHYGGRWNILQDHGTSHLSIVDSERNAVSMTTTVNAYFGSLILSPSTGILLNNEMDDFSMPANTSANSPPPAPANFVRPLKRPLSSMTPTIILKDGNLKAAVGASGGSMIPAGTMEVLLNHFVKNMDPLSSVMAPRVYHQLIPNVVQYENWTTVTGDHFELDAATRADLRRKGHVLEPLAGGTISQLVVDDVERHGGLTAVSDPRKGGFPAGY” the value was “soluble”; for “MHQNNGDYRVRGSRPSRSSEHAGPSLHCKKPEGSIRDTLRLSGSFKIYKEPMPELVCDIHLEKLAENIQKYSKIEERKYRENDMHVNDDSHSSDSRPTSDNEVSSSSDRNNDEPSVRRKRKSVENMCHEREHHGDHLQMQVASVIASNLGPMVEIVEKKLLQHKNAEKLLNDGREVFIKTLEEHNQKKEKVERKAKLVAIPPMKARNRRSSRNSLVYIDGPSTSESHSSMVQQVPIIDNIPEVLENETAVCSISSEADHNSRGIKDNQEFAIEISGEVSRTDDICDDFAVFLKKCTVLLTKFIDSYYDFRSTMKLKPEDAIEHWSAERLTKEEHAARVTRFDVAIARATRVQYNIDIKLLTKQSFVFDDDREAAINKRLARIERFVNEQHEEINWFCFSNFSLMDIGETKDRYCLGDFYDKAISMIPKVKDVPSVVQLAKECKMWSAFERILKQYNFEPLKVFEELQKMLEKDYFLPKGKIFCQFLLNVAQLFSYDVVKNEWSCIKQIDGTLFSGVPFDRDGNLLPTSQNSPTECSS”, “not soluble”. For “HDLALSGNAYKVRLFLSLIGREATLRPVDFLNREHKTQAFLRMNPRGQIPVLEDGELQLGDSHAILVYLARRHADPVWYPLDPVSQGRIAYWLSYSANEVQNGPASARLITRFNLPLDREQTHQRGLEVLRLVDRHLAEHRWLAQGEQPSIADVALYPYLALAPEGGLALDHYPALNAWIARIRALPGYIPMPGL” the value was “not soluble”; for “MHNKWYWTFKHILWGPILRVYNRPEIHGLENIPDKGSAILASNHQAVMDSFYLPLMSPRQITFPAKQEYFTTPGFVGSLQRWFFTAVGQVPIDRTSKSASDDLLKTARMVLDRGDLFGIYPEGTRSPDGRIYRGKTGMARIALDTNVAVVPIAMIGSRDANPIGTWIPRPHKVVIKVGEAISPRSFVSDAGYDPDSYEAMRFFTDHVMKVLADLTGQQYVDLYAADVKKSLAAGKGYPEGA”, “not soluble”; for “MMKKPLLVLTALSLSLSAILSPLPATAALPLSVNGEQIPSLAPMLEKVTPAVVSIAVEGTQVSRQRLPDQFRFFFGPDFPTEQLQERPFRGLGSGVIINADKGYVVTNYHVINGAEKIRVKLYDGREFDAELVGGDEMSDVALLKLNKAKNLTEIRIADSDKLRVGDFAVAIGNPFGLGQTVTSGIVSALGRSGLNIENFENFIQTDAAINSGNSGGALVNLNGELIGINTAILGPNGGNVGIGFAIPSNMMKNLTDQILEFGEVKRGMLGVQGGEITSELADALGYESSKGAFVSQVVPDSAADKAGIKAGDIITSLNGKKIDTFSELRAKVATLGAGKTITLGVLRDGKNQNIDVTLGEQQNAKTKAESLHQGLSGAELSNTTDSDPIQGVKVTEVQKGSAAESYQLQKDDIIIGVNRKRVKNIAELRAIMEKSPNILALNIQRGERTLYLVVR”, “not soluble”.

As for “MGSSHHHHHHSSGRENLYFQGMIYQPDENRYHTMEYRRCGRSGVKLPAISLGLWHNFGDTTRVENSRALLQRAFDLGITHFDLANNYGPPPGSAECNFGRILQEDFLPWRDELIISTKAGYTMWDGPYGDWGSRKYLIASLDQSLKRMGLEYVDIFYHHRPDPETPLKETMKALDHLVRHGKALYVGISNYPADLARQAIDILEDLGTPCLIHQPKYSLFERWVEDGLLALLQEKGVGSIAFSPLAGGQLTDRYLNGIPEDSRAASGSRFLKPEQITADKLEKVRRLNELAARRGQKLSQMALAWVLRNDNVTSVLIGASKPSQIEDAVGMLANRRFSAAECAEIDAILEGRF”, the “soluble on expression in E. coli” value is given as “soluble”. For “MSLKSYRPIELAKMFNLHSNTIRFYESIGYISKASRKPNGYREFTDKHILQLTICRHILGYRYTNRHIRDTGKLIIICSAESKLIEGKQYAQDYIKIIQNEIEIAEKTAQLLHKWAELKRDTDNSDSIEKFYTRNEVACLLGVTSEAVRNWERNDLIKSDKRGYRNAVLFNNIDLDRIRIIYMLRQTGYSMSAIHRCLMVYDKGQTELVVAALNKTDERELLSVGDCWLSELKKLESAAEEIPLIFDKLKESEGHHHHHH” the value was “soluble”; for “MGSDKIHHHHHHMDTSSREHDLVIYGATGFVGRLIAVYIAEHAPAGMRVGLAGRSNSRLEAVRAELPAAAHGWALIEASSEDADSIAALAANTRVLFTTVGPYAKHGLPVVEACARAGTHYADLAGEVFFIREAIDCYDALARTSGARIVHSCGYDSVPSDLAVLLLHQAAEADGAGGLVEVQLEARARAGISGGTLESMRGQLDAMRSSTALRSLAADPYALSPDRTREPTTPQPPDAGPVRRSADGTWTAPFIMAPFNTRIVRRSNALQRWAYGRSLQYGEVMGVAPGPAGAVIPRAMALGLRAFTGAMAFPPTRKVLDRFLPAPGTGPSTSTQRAGWFHSQVTARTEDGQRYQAIAAGPGDPGYAATAVMAGETALALALDGDRLPTAKGSLTPATALGNVLIQRLRAAGHTYQVSKLA”, “not soluble”; for “MKPKHLLCLSTVVAGLALFSTMTHSVLADDASNPDTILMNNNQANLQRDALVQKLDEGHQQLEAIKHEAKGTDIEATVNKAIDAVDHMKSSIRFNTETIYDFSSIGARVEALSDAIKAIVFSTTQLTHKVEKAHTDTGFAITKLVIRIIDPFASVDAIKAQVQEIKALEEKVINYPDLQPTDRATIYTKAKLNKAIWNTRLERDKKVLGIKSFDVYNRLNKAITHAVGVQLNPTTTVQQVDDEVIAVQNALETALKSLEHHHHHH”, “soluble”. In the case of “MLTPPSLSLYIHIPWCVQKCPYCDFNSHAQKGEIPEQEYLDALLQDLDRDIERYQLKGDPRLLHSIFIGGGTPSLISAEGIARLLQGVAERIAFKPEIEITMEANPGTIEAQRFAGYRTAGVTRISIGVQSFEPEKLARLGRIHGQQEAVRAAQLAHQIGLNSFNLDLMHGLPDQTPEQALADLDQAIALNPPHLSWYQLTIEPNTLFYSKPPKLPDEDALWDIFELGHQKLSDAGYVQYEISGYSKPGYQCQHNLNYWRFGDYLGIGCGAHGKLSFADGRIVRTTKTKHPRGYLAALNNLAKAYLDSEQLVADQDKPFEFFMNRFRLIEPCPKADFTATTGLTIDVIRPTLDWALSEGYLSEDDQHWQITEKGKLFLNDLLEAFMADEEELEHHHHHH” it was “not soluble”; in that of “MGSDKIHHHHHHMDSLTELFCLIDDFCCQFEPALERRLLETGVKKRKRCSGLSLSELMTLTVLFHQLRFRQFKSFYLVYVCRHLQAEFPKLPSYQRCVELLPRCVAPLAALFEMLKGQCDGISIADATAIAVCDNRRIARHRVFADSARRGKTSMGWFYGFKLHAIINSRGELIRLRLTAGNVDDRKPMPDLCQGLFGQLFADKGYLAQWLTEALDQQNLQLITPLRKNMRPVPRTRFEKVILRRRSLIETVFDELKNLCQIEHTRHRSLFNFIVNLMAGIVAYCLSDNKPTLNLTRVNSLAKA”, “not soluble”. In the case of “TLPFRIGHGFDLHRLEPGYPLIIGGIVIPHDRGCEAHSDGDVLLHCVVDAILGALGLPDIGQIFPDSDPKWKGAASSVFIKEAVRLMDEAGYEIGNLDATLILQRPKISPHKETIRSNLSKLLGADPSVVNLKAKTHEKVDSLGENRSIAAHTVILLMKK” it was “soluble”; in that of “MGSDKIHHHHHHAPKGAEARMIATVDAEQARTLRFLEVMVNQNSGSRNLEGVRRLRDIVVPEFTALGFTSRWIPMERTGRAGHLVLTHKGRQGAKKLLLIGHLDTVFEPDSPFQTYVLNGEKATGPGVGDDKGGIAVILAAVRAMNAAGTLKGASIEVFLTGDEEEAGSPTEVARADLVAAARAADVALDFEGLSRENGRDMGSIARRSSQSWSLTVEAKSGHSSGVWGANAGDGAIYAAAKIVNAFRTELPEPWLTLNVGLIAGGAEAEVAEDNAHVSAQGKTNIIPGEVIARGDLRTLSPEQNRAAMRKMEEIVGRPYPGVTSARIAFSEGYPPMAPTEGNKALLARLNQVNATLGLPEMQPLDPMKRGAGDISFVAEYIDGLVGLGPHSTGDHAPGETVDVPSIWTQAKRAALLMTRLSAEKSAR”, “not soluble”.
